Source: the supplement of paper PMC12636428

The sequences below were run on Saccharomyces cerevisiae (assay: transcriptional activation domain activity (GFP:mCherry ratio, weighted mean of sorted bins, harmonized to initial dataset scale) (arbitrary fluorescence ratio units); higher = stronger transcriptional activation). Details: beta-estradiol 1 µM; induction time 4 h.
Outline: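 Values are activation activity, found as the read-weighted mean of bin median fluorescence, averaged across barcodes and then mapped linearly onto the initial dataset scale. Barcoded protein tiles fused to an estradiol-inducible synthetic transcription factor were integrated at the URA3 locus of GFP-reporter yeast diploids. Cells were induced for 4 hours at 30 °C with 1 uM beta-estradiol in SC, sorted into 8 bins by GFP:mCherry ratio, and barcode-sequenced, with tiles under 50 reads discarded.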

Point of comparison: “EIESVVMLYVSGRLLRIIEVGLVEGRPDVQAIVQALVARLICVTVSATAKWAR”, “transcriptional activation domain activity” value 36000. Against it:
- MWTVLVGFIRGFLLLLWHLAYPFHFFLYFQLILSSHRLEWLISLFVDAMTGIA — lower, 33400
- KSTARDTSAEVSSTKKRARSKAKKGDSDVEEDSDRGRSKTAKKSRKSTGAKSS — lower, 12800
- QFRYLKRLLLVHGHWSYARNGNMINNFFYKNIICIGVLWWFMIYCGWSSAYVF — higher, 71200
- ELLSVLIPPSPAETRGPTTLSTSPSFNEHGVVAEASFLSSILELGIKHPKSNN — lower, 27900
- GSVGDELVCVVKRARPIAPSSASNAIKVRRGDVRRAVIVRTKKAVRRPDGRLI — lower, 29900
- PARAHGNRDDERGGGVRGGVPADARATLARRVQPHPLARARARVCAGAAVRGE — higher, 48600
- APAAEPVAAATIEEAPKETAEASTATEETAEEKKEEKEKKEKEKKAKLGRRLS — lower, 30700
- LNTFLDSFIFQLFPMVADLWIAAAYFFLYFDAFYSLIIIATTWLYIYITIYMA — higher, 58800
- IYTNRFVSGDDGSNSKTKNLDSNMFSNDFNFENQFDEQVSEFCSKMNQVCGTR — higher, 74400
- QQLRIKIDSWSYQYGVDEVIRNRNRNLLIQMYMLLPPARFWLYMKRVRIMLLN — higher, 66500
- MRKVLANVPGPGGTWGLGFISGVLLVNPKRLLGYLLRCWSTHHGKLARCLWPI — higher, 47600
- KAAPAQDGAAAGERNGAEAAEAGEEEEEAEGEAAAEPGAEAAEKPAPKPAAAA — higher, 42100
- PAPAPEAPKEEEAAAEPAAEPPKTEEAPAAEPVKEPEQAEPTPAADAPADAPA — lower, 18900
- GAKEEGGKKEAGGEKKEGSGKEGAKEGGEKGAKEGGEKKEGGEKGEGKEGGEG — lower, 20300
- RVLNLTIHCAIWVRLYASLAWQKFADTLVHLELQFFTSSVLRAIPQNVCCRHL — higher, 38100
- GVPIWRLTGETWNWKEIVDRHPLTGKVVRRRSLKWGMACYRFWWVVWGCLFYI — higher, 59300
- PLFRHQDSLLIVASNIGLVGMISILVYCTYAFSLQSVVKFYFIPYVLVNHWIV — higher, 45200
- RLLVTTYRMFFILVVTLNLIALALVTVGHFPYADNHIGVILLGNLLCAVMIRN — lower, 29800
- GPLRVAQRPRERPGLRAARVPAEGQEAEGPGRLGRARVGGGVPRGRAAARVVV — lower, 34200
- KPEPAGEKGEGAASGGEGQSGGEGGRRRPSGRGRGRGRGRGGRGGRANRGSRG — higher, 38800
- FKSQLFCFYNLRLFVSCQPKHLNDLVDLLKKYHGSHVYQFVFTLSAFLERVAQ — higher, 48800
- LDLEHLFGIDIEQRFQSYVMTQQAWLMPYLARIYYSHISLGVCFLVYIYTFLP — higher, 44100
- SFSILYSRFAGPSIYMGMRNLLILLYVSMAIWIPHLIYFWLSVLSLCIAPFLF — higher, 37800
- MISIPFPFHFIFKYVWWYYHVLYCLLACLLACCSCTYMFYLPVLLMLLLLFGC — higher, 41900
- NILFHKLFYAYENVLVIISLIYKKKPLGRLQNTRKCSSINVLCNYILEYGRKY — higher, 42100
- MIGVCWVGGGIGVWCFCELTSSSFYPIDLVDFFFSFFCFLNFLLAFDFGLLLA — higher, 57000
- MSRCNSSMFMSMFDSLGLFLFVIFIFLFFELHSFWWDLFSLFFVFVWFNFSIS — higher, 41400
- PLSLLIYFLEWIGPLNLWIRCLCKTSLIEFYFRLLVILLMPFLFVFWHIIGLG — higher, 40100
- MFACPYLGLLCLSVTSMPYPFSQLFQPFISPRFCPECAPFSFFLHSFLGFHLT — higher, 52200
- IRYWLLTFFVMDFLPNRELRLLLASWLNTLVNDPILKKHQDGLSIVRKLIKVA — higher, 51600
- EAKTDAETAVETQPEPKEEVATEETTKSAAKPAGAKKGGKKRAQPEKPADEAA — lower, 12500
- MIKRLRWRRKIERNLPEFRLIPFLQRLLWLLLLLQFLLHLLHPPILCLHRLRY — higher, 50700
- PCPETSTPPPPPPKPTTAYPPPKSSEAPPPPPPKPTTAYPPPPKSSEAPPPPP — higher, 47900
- GDESRIDTKFFFGCVGLSNVVFIWPVLVLFHYLGIERFGLPPSSRIWWLLLLN — higher, 50100
- IIEEQSGEDDDLPGHKKQRKESLAELLASEPADGTSPRRKSGQIKRTVPAVVL — lower, < 6570
- WIVTHSHFIPTAEAGTTGEGMGEGEDRDPDTVRLAVRSLTICMRSANIAMLVG — higher, 53600
- GIISRLVRHAHEMSYITSPLCELAAMLSINWWVKRPFIYFELFGYIRMVLLQS — higher, 86400
- MAHLAYHPLYPLWDLLSHTLIMLIFLITLICLLCPFPSLFIFTPICLSVYLLI — lower, 27200
- QESVYIEVISYIGLIFDWFWYYILMNLSVFIWLACMYYTIFLYGFLEAYFPEK — lower, 33000
- DEYGNAKIRDLRLKPVQTISDSQTVDEAVELMRDKGYDQVPVTSSTGRRLVGM — higher, 73300
- PIHALFCTHIWLLFKLCILCVLFLLSLLCLYGGSMINTGLRIILHLLLCVYLF — higher, 81800
- QENHNSSENGNENENEQDSLALDDLDRAFELVEGMDMDWMMPSHAHHSPATTA — higher, 123000
- DSSAETGPGEDPSLVLPGLHMTLMRRFALKSKDRDRVSVEILGLLIRVLGVLG — higher, 59800
- SPAPSFRGKSKAEEERERAVLDITDRVSKLLRKTQLQVRVIVECIHCKSPKHL — lower, 33300
- WSFLSFSFLPFPLSSFLLLSYPPPSFFLLPPSPFFFAVLLHLFTLLLFSLLLL — higher, 63900
- MAMVRCMDLYNLDGNGMGKFYTWQFFPFFRFWFLPVCMLLLPFVLVSCLAFFI — higher, 58400
- FKVGIDGCLRLRGAGSTLCFHRVVRILTATIGTMVRVLFVCKELWRVTGEETS — higher, 51700
- YGCNELIFNPLIDWWRKGPITRQLRTFMWSDAPLHYKIGMLSYMFSYYALSGA — higher, 36300
- VPSSIPRARRLQTAMVAIWSTSIVTTFALTLFLCSFPPLWPFMLMYVIWLNYI — higher, 49000
- SSLTSIESMGSVMDESGEEEEEDVIYEVKRARTHSMEVQQARLVSWEGAGMKL — higher, 42300
- GEVTQKTRKGSTKHAQRATSGKASEKRRELSRKRKGRRKENARADDGTGEEEE — lower, 17400
- EAGREAGKAGREEKQVKQDEERTAEDTETGKHEEDRNGEQKQRDRKTRRGKIR — lower, 25300
- TNNWNPVHWDWNIFRQIVNFNWVLLFYFIFLLFSLFFHFIPVSCISIFYYFFS — lower, 25100
- SMRAPLFTELGLLPLRFRRLILALRYLSYLITLPHEHYASAALQDAFDLYSQG — lower, 24100
- MGPMMQQIQQPCGDCRGEGEIINAKDKCKACNARKVTQTRKVLEVHIDRGMKD — higher, 45700
- AAKSKGRTSRASRTRGEKSDSKEEKKRTSSLKEKRSSSEEKKSRSSKSAGKEK — higher, 38300
- EPQPPPKAEPPPEPEPEPVPKAEAPPPPREEPPPPKKAPPPPKPEPTPAPAPT — higher, 38600
- MHYRSAILCHSFILYCLVVVLGVFFKVILVLIYNRVCVPLIVLCLFSYSLSLV — higher, 59100
- MSSSDPLRKRDFEDSTRRLACDRCRGQKLRCERITGKTTSPCRRCVKARARCT — lower, 35300
- RGTQKREKRGKEKGEGGTWGRAEGEGKRGGKEKGRREEKRGKKKEAGGAGGRG — lower, 23500
- SGGGRRRDGGGRRAGGRRDGAGGGRGRGDRGGGGGGGGERGERGGRPKKTQEE — higher, 50900
- RNGDKDSGHSRHKDRRHEHRSERRRYSDEGEEDRHRSHRSSHRSSRRRSRSRS — lower, 31900
- ELKKFADGVDRERKERAKSANGCCGFCGREEEALPKCGRCKETRYCSPSVRAC — lower, 33000
- TLAPNGSSNLVHLFAAHSIGKVRSSLLSSLNRKFSSNPSSPCSYFLIFQLFTR — higher, 61100
- LAPFLAWLLSLLLQFFVFFLCYNYCTCFFTCLFTCLFCPFRWLQLLLYSIITT — higher, 44000
- EKPAEAAPAEAIPAEPEAVEEEKPKSPAPTPAAAPAKGTTPSPEKENVAPAKA — lower, 24800
- MSGFVRLLFTFDFRNVLVDILVLHIPLYLFPLFVLSEEFLLLFSFCLFVFLSF — lower, 31000
- MNFWAWFFFFFYSLLILITSFLSFVFFFSLFLFWFLFLFLFPFLSLLIFPLPS — higher, 41100
- FLAAVTCLLCVIGIFICLLFHANPYLRLIPLLIMIQSICFVLFSHFGLCLYRL — higher, 39400
- RLHILVGFVTVAEVTNIVFITRSSWRILIGGVERPDLILIPPATSVGTPILNG — lower, 35000
- ARDDGGGEGAAGETHQAQEARRVLDAGGRARAGAGALRAGPQQHPAPARALRP — lower, 14300
- TACVAIINIKCLFLEMHVWSVLNYAFFFISYGGWWVWTIAQSLIFGHQSIYFV — lower, 34700
- VKKHYKLYYLDPGRTREFIAVSWFEVDILLVRWCSTTEYYTMTVFMTSLKKLN — higher, 50000
